Here are results for one molecule from patent US7501273B2, “Peptidylarginine deiminase 6” (N.V. Organon, priority 2001, dated 2009).

This assay deals with Soybean Trypsin Inhibitor (STI). The assay can be described thus: Determination of PAD6 enzyme activity: citrullination of STI, read out as trypsin activity on a fluorescent substrate. Type of assay: biochemical. The conditions noted are these: 0.5 or 1.0 μg GST-PAD6, 0.17 μg STI, 30 minutes at 37° C., 5 mM CaCl2; FIG. 5. From the text: Another example of determining the enzymatic activity of PAD6 makes use of the inactivation of a protein e.g. Soybean Trypsin Inhibitor (STI) (Talcahara, H. et al. 1985, J. Biol. Chem. 260, 8378–8383. When an essential arginine in STI is converted into citrulline it is no longer able to inhibit the proteolytic activity of trypsin. This can be used as the basis for a two-step assay for the determination of PAD activity. The assay consists of two steps. In the first reaction PAD converts the arginine (position 63) in STI into a citrulline inactivating the STI. In the second reaction trypsin and a fluorescent substrate are added and trypsin activity is measured.
FIG. 5 Fluorescence measurement to determine PAD activity. STI (0.17 μg) was pre-incubated in the absence (filled square) or presence of 0.5 μg GST-PAD6 (filled triangle), 1.0 μg GST-PAD6 (open triangle), or 0.1 μg rabbit muscle PAD (open square; Sigma cat. No P1584) respectively. Subsequently, Nα-benzoyl-L-Arginine-7-amido-4-methylcoumarin (100 μM; Sigma cat. No. B7260) and trypsin (0.25 μg) were added, and fluorescence determined.
The activity of the PAD was determined by the formation of citrulline in Soybean Trypsin Inhibitor (STI) as a substrate. […] Therefore, an increased activity of trypsin, as detected with a fluorescent trypsin substrate, indicates PAD activity. […]

B1: PAD6: Recombinant full-length human peptidylarginine deiminase 6 (SEQ ID NO:3) expressed in E. coli as GST fusion protein (protein)
chain: MSFQSIIHLSLDSPVHAVCVLGTEICLDLSGCAPQKCQCFTIHGSGRVLIDVANTVISEKEDATIWWPLSDPTYATVKMTSPSPSVDADKVSVTYYGPNEDAPVGTAVLYLTGIEVSLEVDIYRNGQVEMSSDKQAKKKWIWGPSGWGAILLVNCNPADVGQQLEDKKTKKVIFSEEITNLSQMTLNVQGPSCILKKYRLVLHTSKEESKKARVYWPQKDNSSTFELVLGPDQHAYTLALLGNHLKETFYVEAIAFPSAEFSGLISYSVSLVEESQDPSIPETVLYKDTVVFRVAPCVFIPCTQVPLEVYLCRELQLQGFVDTVTKLSEKSNSQVASVYEDPNRLGRWLQDEMAFCYTQAPHKTTSLILDTPQAADLDEFPMKYSLSPGIGYMIQDTEDHKVASMDSIGNLMVSPPVKVQGKEYPLGRVLIGSSFYPSAEGRAMSKTLRDFLYAQQVQAPVELYSDWLMTGHVDEFMCFIPTDDKNEGKKGFLLLLASPSACYKLFREKQKEGYGDALLFDELRADQLLSNGREAKTIDQLLADESLKKQNEYVEKCIHLNRDILKTELGLVEQDIIEIPQLFCLEKLTNIPSDQQPKRSFARPYFPDLLRMIVMGKNLGIPKPFGPQIKGTCCLEEKICCLLEPLGFKCTFINDFDCYLTEVGDICACANIRRVPFAFKWWKMVP
modifications: left off: a dimerising Fc or GST
Take B1: the “PAD activity (increased trypsin activity, fluorescence)” value is on record as “could be detected”.
